# Data from US20240002477A1 (UNIVERSITY OF CHICAGO, published 2024).
# B1: S20-74 (antibody, V domains shown)
# VH: QVQLQESGPGLVKPSETLSLTCTVSGGSISSHYWSWIRQPPGKGLEQIGYMYYSGSTNYNPSLKSRVIISVDTSKNQFSLKLSSVTAADTAVYYCAGRDQLLYGADGFDIWGQGTMVTVSS
# VL: QSALTQPPSASGSPGQSVTISCTGTSSDVGGYNYVSWYQQHPGKAPKLMIYEVSKRPSGVPDRYSGSKSGNTASLTVSGLQAEDEADYYCSSYAGSSNHVIFGGGTKLTVL
# notes: recombinant human IgG1
# B2: S564-138 (antibody, V domains shown)
# VH: QVLLVQSGAEVKKPGASVKVSCKASGYTFTGYYLHWVRQAPGQGLEWMGWINPISGGTNYAQNFQDRVTMTRDTSIITAYMELSRLRSDDTAVYYCARLAYYYDSSAYRGAFDIWGQGTMVTVSS
# VL: QSALTQPASVSGSPGQSITISCTGTSSDVGGYNYVSWYQQHPGKAPKLMIYEVSNRPSGVSDRFSGSKSGNTASLTISGLQAEDEADYYCSSYTSSSTYVFGTGTKVTVL
# notes: recombinant human IgG1
# B3: S24-1384 (antibody, V domains shown)
# VH: EVQLVESGGGLVQPGGSLRLSCAVSGFTFSSYSMNWVRQAPGKGLEWVSYISSSSSIIYYADSVKGRFTISRDNAKNSLYLQMNSLRAEDTAVYYCARDFLDYSRSYSYGMDVWGQGTTVTVSS
# VL: SYVLTQPPSVSVAPGQTARITCGGDNIGSKNVHWYQQKPGQAPVLVVFDDSDRPSGIPERFSGSNSGNTATLTISRVEAGDEADYYCQVWDSSSDHYVVFGGGTKLTVL
# B4: S564-152 (antibody, V domains shown)
# VH: QVQLVESGGGVVQPGRSLRLSCAASGFTFSYYGMHWVRQAPGKGLEWVAVIWYDGSNKHYADSVKGRFTISRDNSKNTLYLQMNSLRAEDTAVYYCAKNAAPYCSGGSCYGTYFDYWGQGTLVTVSS
# VL: DIQMTQSPSSLSASVGDRVTITCQASQDINNYLNWYQQKPGKAPKLLIYDASNLETGVPSRFSGSGSGTDFTFTISSLQPEDIATYYCQQYDNVPPHTFGQGTKLEIK
# notes: recombinant human IgG1
# B5: S564-14 (antibody, V domains shown)
# VH: EVQLVESGGGLVQPGGSLRLSCAASGLTFSSYWMSWARQAPGKGLEWVANIKKDGSEKYYVDSVKGRFTISRDNAKNSLYLQMNSLRVEDTAVYYCASEPPHYGGNSGAEYFQHWGQGTLVTVSS
# VL: SYVLTQPPSVSVAPGKTARITCGGNNIGSKSVHWYQQRPGQAPVLVIYYDSDRPSGIPERFSGSNSGNTATLTISRVEAGDEADYYCQVWDSSSDHHYVFGTGTKVTVL
# notes: recombinant human IgG1
# B6: S144-466 (antibody, V domains shown)
# VH: EVQLVQSGAEVKKPGESLKISCKGSGYRFTRYWIGWVRQMPGKGLEWMGIIYLGDSETRYSPSFQGQVTISADNSISTAYLQWSSLKASDTAMYYCARSSNWNYGDYWGQGTLVTVSS
# VL: DIQMTQSPSTLSASVGDRVTITCRASQSITSWLAWYQQKSGKAPKLLIYDASSLESGVPSRFSGSGSGTEFTLTISSLQPDDFATYYCQQYNSYPWTFGQGTKVEIK
# notes: recombinant human IgG1
# B7: S144-69 (antibody, V domains shown)
# VH: EVQLVQSGAEVKKPGESLKISCKGSGYSFTSYWIGWVRQMPGKGLEWMGIIYPGDSDTRYSPSFQGQVTISADKSITTAYLQWSSLKASDTAMYYCARTQTTNWFDSWGQGTLVTVSS
# VL: DIQMTQSPSTLSVSVGDRVTITCRASQSVSSWLAWYQQKPGKAPKLLIYDASSLESGVPSRFSGSGSGTEFTLTISSLQPDDFATYYCQQYNSFYTFGQGTKLEIK
# notes: recombinant human IgG1
# B8: S144-1406 (antibody, V domains shown)
# VH: QVQLVQSGAEVKKPGASVKVSCKASGYTFTTYAMHWVRQAPGQRLEWMGWINAGNGNTKYSQNFQGRVTITRDTSASTAYMELSSLRSEDTAVYYCASLVGGDSSSWYDYMDVWGKGTTVTVSS
# VL: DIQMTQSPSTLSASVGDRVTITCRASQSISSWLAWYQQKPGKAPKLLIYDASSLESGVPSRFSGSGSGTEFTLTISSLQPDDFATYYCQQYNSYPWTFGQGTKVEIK
# notes: recombinant human IgG1
# B9: S144-67 (antibody, V domains shown)
# VH: EVQLVQSGAEVKKPGESLKISCKGSGYSFTTYWIAWVRQMPGKGLEWVGIIYPDDSDTRYSPSFQGQVTISADKSIGTAYLQWSSLKASDTAMYYCARGQYYDFWSGAGGVDVWGQGTTVTVSS
# VL: QSVLTQPPSVSGAPGQRVTISCTGSRSNIGAGYDVQWYQQVPGTAPKLLISGNSNRPSGVPDRFSGSKSGTSASLAITGLQAEDEADYYCQSYDSSLSGLRVFGGGTKLTVL
# notes: recombinant human IgG1
# B10: S24-1224 (antibody, V domains shown)
# VH: QVQLVQSGAEVKKPGASVRVSCKASGYTFTSYYIYWVRQAPGQGLEWMGVINPSGGSTSYAQKFQGRVTLTRDTSTSTVYMDLSSLRSEDTAVYYCARDPIMWEVVTRGRGNWFDPWGQGTLVTVSS
# VL: QSVLTQPPSVSGAPGQRVTIPCTGSSFNIGAGYDVHWYQQLPGTAPKLLIFGNSNRPSGVPDRFSGSRSGTSASLAITGLQAEDEADYYCQSYDSSLSGVVFGGGTTLTVL
# notes: recombinant human IgG1
# B11: S144-509 (antibody, V domains shown)
# VH: EVQLVQSGAEVKKPGESLKISCKGSAYTFTTYWIGWVRQMPGKGLEWMGIIYPGDSDTRYSPSFQGQVTISADKSISTAYLQWSSLKASDTAMYYCARLLLVAGPFDYWGQGTLVTVSS
# VL: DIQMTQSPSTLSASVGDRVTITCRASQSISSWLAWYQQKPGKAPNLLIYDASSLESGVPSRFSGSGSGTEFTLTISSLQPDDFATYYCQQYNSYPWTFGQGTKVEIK
# notes: recombinant human IgG1
# B12: S144-1079 (antibody, V domains shown)
# VH: QVQLVQSGAEVKKPGSSVKVSCKASGDTFGSYSITWVRQAPGQGLEWMGRIIPVLGIANYAQKFQGRVTITADKSTSTAYMELSSLRSEDTAVYYCAGGGCSGGNCYSWYNWFDPWGQGSLVTVSS
# VL: EIVLTQSPGTLSLSPGERATLSCRASQSVSSNYLAWYQQKPGQAPRLLIYGASSRATGIPERFSGSGSGTDFTLTISRLEPEDFAVYYCQQYGRSPYTFGQGTKLEIK
# notes: recombinant human IgG1
# B13: S24-278 (antibody, V domains shown)
# VH: QVQLVQSGAEVKKPGASVKVSCKASGYTFTGYYMHWVRQAPGQGLEWMGWINPNSGDTNYAQKFQGWVTMTRDTSLSTAYMELSRLKSDDTAVYYCARVGVGEYSGRHYYYYGMDVWGQGTTVTVSS
# VL: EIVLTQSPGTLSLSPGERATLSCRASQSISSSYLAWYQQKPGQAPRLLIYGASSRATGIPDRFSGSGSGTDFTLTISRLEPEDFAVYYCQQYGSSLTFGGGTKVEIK
# notes: recombinant human IgG1
# B14: S144-741 (antibody, V domains shown)
# VH: QVHLVQSGAEVKKPGASVKVSCKASGYTFTGYYMNWVRQAPGQGLEWMGRINPNSGGTNYAQKFQGRVTMTRDTSISTAYMELSRLRSDDAAVYYCARAERYSSSWYNLYYWGQGTLVTVSS
# VL: not shown
# notes: recombinant human IgG1
# B15: S144-843 (antibody, V domains shown)
# VH: QVQLVESGGGVVQPGGSVRLSCAASGFDFTNNGMYWVRQAPGKGLEWVAFIRYDGNKQDYADSVKGRFTISRDNSKNTLYLQMSSLRPEDTAVYYCAKGVYTENYGWGQGTLVTVSS
# VL: EIVLTQSPGTLSLSPGERATLSCRASQTVTSRYLAWYQQKPGQAPRLLIYGASTRATGIPDRFSGSGSGTDFTLTISRLEPEDFAVYYCQQYGNSPPYTFGQGTKLEIK
# notes: recombinant human IgG1
# B16: S24-636 (antibody, V domains shown)
# VH: EVQLVESGGGLVQPGGSLRLSCAASGFTLSSYWMSWVRQAPGKGLEWVANIKQDGSEKYYVDSVKGRFTISRDNAKNSLYLQMNSLRAEDTAVYYCARDLTATWFDPWGQGTLVTVSS
# VL: QTVVTQEPSFSVSPGGTVTLTCGLSSGSVSTSYYPSWYQQTPGQAPRTLIYSTNKRSSGVPDRFSGSILGNKAALTITGAQADDESDYYCVLYMGSGMSVFGGGTKLTVL
# B17: S24-1378 (antibody, V domains shown)
# VH: EVQLVESGGGLVQPGGSLRLSCAASGFTVSSNYMSWVRQAPGKGLEWVSVIYSGGSTYYADSVKGRFTISRHNSKNTLYLQMNSLRAEDTAVYYCAREGYCTNGVCYRHAFDIWGQGTMVTVSS
# VL: QTVVTQEPSFSVSPGGTVTLTCGLSSGSVSTSYYPSWYQQTPGQAPRTLIYSTNTRSSGVPDRFSGSILGNKAALTITGAQADDESDYYCVLYMGSGISVFGGGTKLTVL
# notes: recombinant human IgG1
# B18: S24-1345 (antibody, V domains shown)
# VH: QLQLQESGPGLVKPSETLSLTCTVSGGSISSSSYYWGWIRQPPGKGLEWIGSIYYSGSTYYNPSLKSRVTISVDTSKNQFSLKLSSVTAADTAVYYCARRIRRPTSEVVITYVFDYWGQGTLVTVSS
# VL: AIQLTQSPSSLSASVGDRVTITCRASQGISSALAWYQQKPGKAPKLLIYDASSLESGVPSRFSGSGSGTDFTLTISSLQPEDFATYYCQQFNSYLTFGGGTKVEIK
# B19: S144-1299 (antibody, V domains shown)
# VH: QVQLQESGPGLVKPSETLSLTCTVSGGSISSYYWSWIRQPPGKGLEWIGYINYRGITNYNPSLKSRVTISVDMSKNQFSLKLSSVTAADTAVYSCARLAVASRGTVDYWGQGTLVTVSS
# VL: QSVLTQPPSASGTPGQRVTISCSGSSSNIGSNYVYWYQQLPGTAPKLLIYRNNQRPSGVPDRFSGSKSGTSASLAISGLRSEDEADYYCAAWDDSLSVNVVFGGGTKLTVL
# notes: recombinant human IgG1
# B20: S144-208 (antibody, V domains shown)
# VH: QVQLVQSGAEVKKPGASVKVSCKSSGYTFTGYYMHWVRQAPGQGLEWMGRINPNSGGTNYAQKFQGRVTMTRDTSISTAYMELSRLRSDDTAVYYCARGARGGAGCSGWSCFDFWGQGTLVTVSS
# VL: QSALTQPRSVSGSPGQSVTISCTGTSSDVGGYKYVSWYQQHPGKAPKLMIYDVSKRPSGVPDRFSGSKSGNTASLTISGLQAEDEGDYYCCSYAGTYSLVFGGGTKVTV
# notes: recombinant human IgG1
# B21: S564-287 (antibody, V domains shown)
# VH: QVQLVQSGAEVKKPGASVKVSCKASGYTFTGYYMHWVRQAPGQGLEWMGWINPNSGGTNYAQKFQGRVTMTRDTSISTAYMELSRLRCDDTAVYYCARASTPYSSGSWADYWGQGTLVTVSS
# VL: QSALTQPASVSGSPGQSITISCTGTSSDVGGYNYVSWYQQHPGKAPKLMIYDVSNRPSGVSNRFSGSKSGNTASLTISGLQAEDEADYYCSSYASSSTWVFGGGTKLTVL
# notes: recombinant human IgG1
# B22: S144-588 (antibody, V domains shown)
# VH: QLQLQESGPGLVKPSETLSLTCTVSGGSISSSSYYWGWIRQPPGKGLEWIGSIYYSGSTYYNPSLKSRFTISVDTSKNQFSLKLSSVTAADTAVYYCAAYQRKLGYCRGNSCFSCFDPWGQGTLVTVSS
# VL: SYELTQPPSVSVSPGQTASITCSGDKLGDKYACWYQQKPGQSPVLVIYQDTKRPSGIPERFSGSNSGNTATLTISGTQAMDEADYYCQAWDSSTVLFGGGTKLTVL
# notes: recombinant human IgG1
# B23: S144-175 (antibody, V domains shown)
# VH: QVQLVQSGAEVKKPGASVKVSCKASGYTFTGYYMHWVRQAPGQGLEWMGRINPNSGGTNFAQRFQGRVSMTRDTSISTAYMELSSLRSDDTAVYYCARGAKFEHLPFDIWGQGTMVTVSS
# VL: QSMLTQPPSASGTPGQRVTISCSGSSSNIGSNYVYWYQQLPGTAPKLLIYRNNQRPSGVPDRFSGSKSGTSASLAISGLRSEDEADYYCAAWDDRRWVFGGGTKLTVL
# notes: recombinant human IgG1
# Biological target: SARS-CoV-2 spike receptor-binding domain (SARS-CoV-2, UniProt P0DTC2 319-541)
# Assay: mAb table, Specificity column (recombinant IgG1; ELISA)
row,Binder,binding result
1,B1,binds
2,B2,binds
3,B3,binds
4,B4,binds
5,B5,binds
6,B6,binds
7,B7,binds
8,B8,binds
9,B9,binds
10,B10,binds
11,B11,binds
12,B12,binds

# Biological target: T1, SARS-CoV-2 ORF8 protein (SARS-CoV-2, UniProt P0DTC8 16-121)
# T1 construct: domain: Ig-like domains; also called open reading frame 8
# Assay: as above
# T1 sequence (P0DTC8 16-121, tags left off): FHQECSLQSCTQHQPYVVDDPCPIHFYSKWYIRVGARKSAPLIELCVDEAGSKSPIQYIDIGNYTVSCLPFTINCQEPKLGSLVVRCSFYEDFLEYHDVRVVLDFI
row,Binder,binding result
1,B13,binds
2,B14,binds
3,B15,binds
4,B16,binds
5,B17,binds
6,B18,binds
7,B19,binds
8,B20,binds
9,B21,binds
10,B22,binds
11,B23,binds
